Laboratory results from publication doi:10.1101/2022.02.18.481027, “Structural insights into the assembly and activation of IL-27 signalling complex” (bioRxiv, 2022).

B1: Murine IL-27, linker-connected single-chain variant (p28+EBI3) (ligand)
chain 1: YTETALVALSQPRVQCHASRYPVAVDCSWTPLQAPNSTRSTSFIATYRLGVATQQQSQPCLQRSPQASRCTIPDVHLFSTVPYMLNVTAVHPGGASSSLLAFVAERIIKPDPPEGVRLRTAGQRLQVLWHPPASWPFPDIFSLKYRLRYRRRGASHFRQVGPIEATTFTLRNSKPHAKYCIQVSAQDLTDYGKPSDWSLPGQVESAPHKP
chain 2: FPTDPLSLQELRREFTVSLYLARKLLSEVQGYVHSFAESRLPGVNLDLLPLGYHLPNVSLTFQAWHHLSDSERLCFLATTLRPFPAMLGGLGTQGTWTSSEREQLWAMRLDLRDLHRHLRFQVLAAGFKCSKEEEDKEEEEEEEEEEKKLPLGALGGPNQVSSQVSWPQLLYTYQLLHSLELVLSRAVRDLLLLSLPRRPGSAWDS
B2: Murine IL-27Rα ectodomain (amino acids 28-224), N-terminally biotinylated (receptor, UniProt O70394 28-224, looked up)
chain: HGSPGPLQCYSVGPLGILNCSWEPLGDLETPPVLYHQSQKYHPNRVWEVKVPSKQSWVTIPREQFTMADKLLIWGTQKGRPLWSSVSVNLETQMKPDTPQIFSQVDISEEATLEATVQWAPPVWPPQKVLICQFRYKECQAETWTRLEPQLKTDGLTPVEMQNLEPGTCYQVSGRCQVENGYPWGEWSSPLSFQTPF
modifications: N-terminal biotin (EZ-Link Sulfo-NHS-SS-Biotin, at pH 6.5)
notes: murine IL-27Rα, amino acids 28-224; also called biotinylated IL-27Rα; source: baculovirus, Trichoplusia ni (High Five) cells, secreted, purified (Ni-NTA, SEC), biotinylated in vitro

Tests used:
[1] = molecular target: T1, Murine IL-27Rα ectodomain (amino acids 28-224), N-terminally biotinylated (murine, UniProt O70394 28-224, N-terminal biotin (EZ-Link Sulfo-NHS-SS-Biotin, at pH 6.5)); experiment: SPR
T1 chain: B2 chain

[2] = molecular target: T2, Murine GP130 ectodomain with C-terminal biotin acceptor peptide, biotinylated (murine, UniProt Q00560 23-319, biotin on the biotin acceptor peptide (BirA ligase)); experiment: SPR
T2 chain: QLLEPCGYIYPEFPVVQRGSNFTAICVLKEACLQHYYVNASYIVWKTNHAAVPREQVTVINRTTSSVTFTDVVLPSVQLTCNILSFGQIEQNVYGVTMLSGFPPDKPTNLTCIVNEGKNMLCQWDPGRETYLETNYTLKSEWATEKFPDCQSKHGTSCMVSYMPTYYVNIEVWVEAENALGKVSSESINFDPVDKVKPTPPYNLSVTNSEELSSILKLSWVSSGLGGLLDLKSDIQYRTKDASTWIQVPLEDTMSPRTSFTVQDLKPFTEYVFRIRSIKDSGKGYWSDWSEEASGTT

[3] = molecular target: T3, p28 (IL-27p28), recombinant, alone (murine, UniProt Q8K3I6 29-234); experiment: SPR; biotinylated IL-27Rα or GP130 immobilised on a streptavidin chip (Series S Sensor SA), p28 flowed over; equilibrium analysis; 10 mM HEPES, 150 mM NaCl, 0.05% TWEEN-20, 0.5% BSA; Biacore T100; conditions: both partners purified
T3 construct: IL-27p28 (p28) without EBI3; the construct is not described; The methods of expression name no p28 construct; source: recombinantly produced
T3 sequence (looked up): B1 chain 2

Binder	koff [1]	koff [2]	Kd [3]
B1	0.001 s⁻¹	0.021 s⁻¹	–
B2	–	–	2800 nM
